# Data from PMC12051018, “Purification and characterization of a thermophilic NAD ^+‐dependent lactate dehydrogenase from Moorella thermoacetica” (FEBS Open Bio, 2025).
# Assays:
# [1] = substrate: CC(=O)C(=O)O; experiment: purified protein; type: biochemical, Neomoorella thermoacetica; details: 0.5 mM NADH, 50 mM Tris/HCl pH 8, 10 mM NaCl, 4 mM DTE, 65 °C, anoxic
# [2] = substrate: C[C@H](O)C(=O)O; experiment: purified protein; type: biochemical, Neomoorella thermoacetica; details: 2 mM NAD+, 50 mM Tris/HCl pH 8, 10 mM NaCl, 4 mM DTE, 65 °C, anoxic
# [3] = substrate: NC(=O)C1=CN([C@@H]2O[C@H](COP(=O)(O)OP(=O)(O)OC[C@H]3O[C@@H](n4cnc5c(N)ncnc54)[C@H](O)[C@@H]3O)[C@@H](O)[C@H]2O)C=CC1; experiment: purified protein; type: biochemical, Neomoorella thermoacetica; details: 1 mM pyruvate, 50 mM Tris/HCl pH 8, 10 mM NaCl, 4 mM DTE, 65 °C, anoxic, varied: cofactor
# [4] = substrate: NC(=O)c1ccc[n+]([C@@H]2O[C@H](COP(=O)(O)OP(=O)(O)OC[C@H]3O[C@@H](n4cnc5c(N)ncnc54)[C@H](O)[C@@H]3O)[C@@H](O)[C@H]2O)c1; experiment: purified protein; type: biochemical, Neomoorella thermoacetica; details: 20 mM L-lactate, 50 mM Tris/HCl pH 8, 10 mM NaCl, 4 mM DTE, 65 °C, anoxic, varied: cofactor
# [5] = molecular target: the molecule itself; experiment: SEC; calibrated Superose 6 column, buffer 4 (50 mM Tris/HCl pH 7.5, 150 mM NaCl, 20 mM MgSO4, 20% glycerol, 4 mM DTE, 4 uM resazurin), size standards aprotinin, carbonic anhydrase, ovalbumin, conalbumin; native size 60 kDa against a 34 kDa monomer
Protein,Km [1] [µM],Km [2] [µM],Km [3] [µM],Km [4] [µM],stoichiometry N [5]
"LDH from M. thermoacetica (Moorella thermoacetica ATCC 39073) (protein, native full-length, purified from lactate-grown cells; native 60 kDa, dimer) MGLQGPAKVAIIGTGYVGSSTAFALLFSPLVKEMVLVDVNHAKAEGEAMDLAHAATLIRPVEVYAGRPADCAGSRIVIFTAGANQQPGQTRLDLIHRNTAIVRQALPEILHYCPEALVLMVANPVDILTYVAWKISGLPENRVLGSGTVLDSARFRHLLSRHYRVDPRNIHAYVIGEHGDTEVPVWSLANVAGVDLEEFYLMDGMREEEAFRVEISHQVREAAYEIIERKGVTSYGVALALSRIIECILRNEHSVLTISSVIRDLYGIDGEVALSLPCLVGNEGREKVLAIPLVAREKAALKHSATTLQQLIAQLSL",1000,20000,100,500,–
"NAD+-dependent lactate dehydrogenase from Moorella thermoacetica (enzyme, Moorella thermoacetica (DSM 521), UniProt Q2RHG3 1-317, looked up, L-lactate dehydrogenase of Moorella thermoacetica DSM 521, product of the ldh gene (954 bp, predicted mass 34.6 kDa), identified by peptide mass fingerprinting; Native enzyme purified from the organism; on SDS-PAGE about 34 kDa, which fits the predicted monomer; also called LDH; gene product of the ldh gene) MGLQGPAKVAIIGTGYVGSSTAFALLFSPLVKEMVLVDVNHAKAEGEAMDLAHAATLIRPVEVYAGRPADCAGSRIVIFTAGANQQPGQTRLDLIHRNTAIVRQALPEILHYCPEALVLMVANPVDILTYVAWKISGLPENRVLGSGTVLDSARFRHLLSRHYRVDPRNIHAYVIGEHGDTEVPVWSLANVAGVDLEEFYLMDGMREEEAFRVEISHQVREAAYEIIERKGVTSYGVALALSRIIECILRNEHSVLTISSVIRDLYGIDGEVALSLPCLVGNEGREKVLAIPLVAREKAALKHSATTLQQLIAQLSL",–,–,–,–,2
